Experimental findings from patent US20220356266A1 (Janssen / Centocor, published 2022) are described below.

Holding throughout (test): cell-based or functional assay
Test [1] concerns the target PSMA on C42B and LNCap cells (UniProt Q04609 1-750, limits assumed).
The target in test [2] is T1, KLK2 on VCaP cells (UniProt P20151 25-261, limits assumed).
The target in test [3] is T1, KLK2 on VCaP cells. The source holds these as a separate data set.

T1 sequence (P20151 25-261 limits assumed): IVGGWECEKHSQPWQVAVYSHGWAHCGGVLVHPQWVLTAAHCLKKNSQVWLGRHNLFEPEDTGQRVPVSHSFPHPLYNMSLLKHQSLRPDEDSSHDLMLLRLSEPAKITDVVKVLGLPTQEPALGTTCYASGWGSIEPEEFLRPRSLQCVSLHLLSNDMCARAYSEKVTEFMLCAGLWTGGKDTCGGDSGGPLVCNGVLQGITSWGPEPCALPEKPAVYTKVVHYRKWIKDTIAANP
Sequence of PSMA on C42B and LNCap cells (Q04609 whole entry): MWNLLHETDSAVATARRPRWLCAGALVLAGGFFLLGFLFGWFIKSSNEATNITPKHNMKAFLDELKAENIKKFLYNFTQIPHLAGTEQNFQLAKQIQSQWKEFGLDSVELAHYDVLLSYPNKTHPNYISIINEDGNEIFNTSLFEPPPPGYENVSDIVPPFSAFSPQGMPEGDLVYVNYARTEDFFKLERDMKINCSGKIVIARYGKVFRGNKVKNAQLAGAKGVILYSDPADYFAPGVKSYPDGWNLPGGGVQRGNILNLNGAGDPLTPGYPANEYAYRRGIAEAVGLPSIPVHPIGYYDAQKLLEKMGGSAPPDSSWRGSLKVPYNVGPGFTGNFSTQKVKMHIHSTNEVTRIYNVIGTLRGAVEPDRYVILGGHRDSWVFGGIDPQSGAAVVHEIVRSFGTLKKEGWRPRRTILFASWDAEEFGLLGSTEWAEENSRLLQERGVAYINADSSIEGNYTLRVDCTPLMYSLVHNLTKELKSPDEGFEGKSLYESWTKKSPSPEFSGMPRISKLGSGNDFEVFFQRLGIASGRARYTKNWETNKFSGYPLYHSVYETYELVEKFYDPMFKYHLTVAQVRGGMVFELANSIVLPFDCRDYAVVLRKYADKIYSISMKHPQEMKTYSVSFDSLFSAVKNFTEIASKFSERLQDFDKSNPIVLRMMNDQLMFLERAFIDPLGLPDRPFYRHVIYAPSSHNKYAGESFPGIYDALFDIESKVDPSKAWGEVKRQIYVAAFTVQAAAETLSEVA

B1: PSMB952 (antibody, V domains shown)
VH: EVQLVESGGGLVQPGGSLRLSCAASGFTFSSYAMSWVRQAPGKGLEWVSAISGGIGSTYYADSVKGRFTISRDNSKNTLWLQMNSLRAEDTAVYYCAKDGVGATPYYFDYWGQGTLVTVSS
VL: QSVLTQPPSVSAAPGQKVTISCSGSSSNIGINYVSWYQQLPGTAPKLLIYDNNKRPSGIPDRFSGSKSGTSATLGITGLQTGDEADYYCGTWDSSLSAVVFGGGTKLTVL
As to B1, in test [1], the “In vitro ADCC killing EC50 (M), NK cells at 24 hour, C42B cells” value came out at 2.45e-11 M; the “In vitro ADCC killing EC50 (M), NK cells at 24 hour, LNCap cells” value is 4.59e-11 M; the “In vitro ADCC killing EC50 (M), PBMC at 6 hour, C42B cells” value was 3.51e-10 M; the “In vitro ADCC killing EC50 (M), PBMC at 6 hour, LNCap cells” value was found to be 2.01e-10 M.

B2: PSMB956 (antibody, V domains shown)
VH: EVQLVESGGGLVQPGGSLRLSCAASGFTFSSYAMSWVRQAPGKGLEWVSAISGGSGSTYYADSVKGRFTISRDNSKNTLYLQMNSLRAEDSAVYYCAKDGVGATPYYFDYWGQGTLVTVSS
VL: QSVLTQPPSVSAAPGQKVTISCSGSSSNIGINYVSWYQQLPGTAPKLLIYDNNKRPSGIPDRFSGSKSGTSATLGITGLQTGDEADYYCGTWDSSLSAVVFGGGTKLTVL
Take B2: in test [1], the “In vitro ADCC killing EC50 (M), NK cells at 24 hour, C42B cells” value was 9.96e-12 M; the “In vitro ADCC killing EC50 (M), NK cells at 24 hour, LNCap cells” value is 3.58e-11 M; the “In vitro ADCC killing EC50 (M), PBMC at 6 hour, C42B cells” value was found to be 4.23e-10 M; the “In vitro ADCC killing EC50 (M), PBMC at 6 hour, LNCap cells” value stood at 1.52e-10 M.

B3: KL2B870 (KL2B30 in hIgG1-RE) (antibody)
heavy: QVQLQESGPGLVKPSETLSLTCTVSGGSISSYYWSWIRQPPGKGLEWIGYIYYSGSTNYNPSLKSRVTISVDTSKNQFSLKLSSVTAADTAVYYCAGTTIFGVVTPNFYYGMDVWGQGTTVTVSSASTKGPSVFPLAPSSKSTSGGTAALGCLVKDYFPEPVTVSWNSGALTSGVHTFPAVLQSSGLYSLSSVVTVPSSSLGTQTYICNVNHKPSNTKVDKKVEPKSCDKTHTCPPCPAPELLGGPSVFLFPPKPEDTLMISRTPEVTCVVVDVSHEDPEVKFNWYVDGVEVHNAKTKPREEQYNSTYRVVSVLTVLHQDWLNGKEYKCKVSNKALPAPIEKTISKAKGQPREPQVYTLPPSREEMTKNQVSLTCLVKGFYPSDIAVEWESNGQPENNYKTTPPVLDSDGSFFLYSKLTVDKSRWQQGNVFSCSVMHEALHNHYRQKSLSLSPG
light: DIQMTQSPSFLSASVGDRVTITCRASQGISSYLAWYQQKPGKAPKFLIYAASTLQSGVPSRFSGSGSGTEFTLTISSLQPEDFATYYCQQLNSYPLTFGGGTKVEIKRTVAAPSVFIFPPSDEQLKSGTASVVCLLNNFYPREAKVQWKVDNALQSGNSQESVTEQDSKDSTYSLSSTLTLSKADYEKHKVYACEVTHQGLSSPVTKSFNRGEC
For B3, the “ADCC activity, percent cell killing of VcaP cells by PBMC” value (from here on “ADCC activity, percent cell killing”) with KLK2 on VCaP cells [2] is roughly 73%. Further, the “EC50 (M), in vitro ADCC dose-response killing by PBMC on VcaP cells at 48 hour” value (“EC50 (M) … at 48 hour” below) with KLK2 on VCaP cells [3] came to 1e-09 M.

B4: KL2B870.CLF (antibody, human IgG1, kappa)
heavy: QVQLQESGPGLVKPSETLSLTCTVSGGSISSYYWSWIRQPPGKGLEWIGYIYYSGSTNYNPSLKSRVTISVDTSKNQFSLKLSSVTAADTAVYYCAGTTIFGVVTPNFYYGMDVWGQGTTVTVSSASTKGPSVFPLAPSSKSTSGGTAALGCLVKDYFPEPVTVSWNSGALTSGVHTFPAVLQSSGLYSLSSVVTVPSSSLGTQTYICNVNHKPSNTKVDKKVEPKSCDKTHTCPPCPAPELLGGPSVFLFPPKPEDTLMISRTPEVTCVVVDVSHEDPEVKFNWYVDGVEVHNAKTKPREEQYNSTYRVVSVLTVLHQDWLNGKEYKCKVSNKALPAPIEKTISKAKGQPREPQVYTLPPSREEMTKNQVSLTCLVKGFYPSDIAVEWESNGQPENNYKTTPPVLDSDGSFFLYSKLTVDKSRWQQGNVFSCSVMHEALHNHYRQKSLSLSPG
light: DIQMTQSPSFLSASVGDRVTITCRASQGISSYLAWYQQKPGKAPKFLIYAASTLQSGVPSRFSGSGSGTEFTLTISSLQPEDFATYYCQQLNSYPLTFGGGTKVEIKRTVAAPSVFIFPPSDEQLKSGTASVVCLLNNFYPREAKVQWKVDNALQSGNSQESVTEQDSKDSTYSLSSTLTLSKADYEKHKVYACEVTHQGLSSPVTKSFNRGEC
modifications: low fucosylation of the Asn-297-linked N-oligosaccharide (expressed in fucosylation-deficient cells)
Consider B4, for which the “ADCC activity, percent cell killing” value with KLK2 on VCaP cells [2] is roughly 89%. In addition, the “EC50 (M) … at 48 hour” value in the test with KLK2 on VCaP cells [3] is 3.54e-10 M.

B5: KL2B872.CLF (antibody, human IgG1, kappa)
heavy: not shown
light: DIQMTQSPSFLSASVGDRVTITCRASQGISSYLAWYQQKPGKAPKFLIYAASTLQSGVPSRFSGSGSGTEFTLTISSLQPEDFATYYCQQLNSYPLTFGGGTKVEIKRTVAAPSVFIFPPSDEQLKSGTASVVCLLNNFYPREAKVQWKVDNALQSGNSQESVTEQDSKDSTYSLSSTLTLSKADYEKHKVYACEVTHQGLSSPVTKSFNRGEC
modifications: low fucosylation of the Asn-297-linked N-oligosaccharide (expressed in fucosylation-deficient cells)
Regarding B5, in the test with KLK2 on VCaP cells [2], the “ADCC activity, percent cell killing” value was roughly 85%. For the same molecule, the “EC50 (M) … at 48 hour” value with KLK2 on VCaP cells [3] turned out to be 4.12e-10 M.
